Data on one molecule can be found in patent US10253089B2, “Matrix metalloproteinase cleavable protein polymers for cancer gene therapy” (The University of Utah Research Foundation, priority 2012, dated 2019).

The target in one data set is MMP-9 (Homo sapiens, UniProt P14780). The data set can be described thus: Enzymatic digest of polymer by MMP-9, SDS-PAGE. In kind it is biochemical. As to conditions: 1 mg/ml polymer, 10 nM and 40 nM MMP-9, 2-48 hours, room temperature. On the procedure:
This buffer recipe is sourced from the Molecular Probes EnzChek Gelatinase/Collagenase Assay Kit (Invitrogen, Carlsbad, Calif.), which was used to confirm the activity of MMP-2 and MMP-9 prior to use. 2× Laemmli Buffer was supplemented with 5% β-mercaptoethanol and added 1:1 by volume to the polymer solutions, which were then placed in a PCR thermal cycler and heated to 95° C. for five minutes to denature the protein. 25 μl of each sample was added to 4-15% Bis-Tris precast PAGE gel and electrophoresis was performed at 200V until the dye front reached the bottom of the gel, approximately 30 minutes. Kaleidoscope protein standard was used as a molecular weight marker. Following electrophoresis, gels were stained with GelCode Blue (colloidal Coomassie formulation) following manufacturer's instructions for staining and destaining.
100 μl samples of each polymer were digested with a final concentration of 10 nM and 40 nM MMP-2 or MMP-9. MMP samples were incubated at room temperature for 2, 4, 12, 24, 36, and 48 hours and samples were run on PAGE gels and stained with GelCode Blue to visualize band patterns corresponding to protein degradation.
Additionally, this digestion is dependent on both time of exposure and concentration of MMP.

Data set [1] in a line: Dynamic mechanical analysis (DMA) of SELP hydrogels. In kind it is physicochemical. The note with it: 12 wt % hydrogels. An excerpt:
It was predicted that polymer structure would also play a large role in the mechanical properties of the hydrogels. Dynamic mechanical analysis (DMA) was used to examine hydrogels made from each of the SELP analogues, and as predicted, there was a strong dependence of the results on the silk and elastin content of the polymers, and the arrangement of the silk and elastin blocks. […] This is opposite the order observed in the swelling studies, which is to be expected assuming the crosslinking density decreases with increasing swelling and decreasing mechanical properties for analogous materials. The legend for the graph shown in FIG. 8 is as follows: triangles: SELP-47K, squares: SELP-815K, diamonds: SELP-415K. Highly controlled structure in SELPs allows fine-tuning of mechanical properties.
To gain further insight into the hydrogel pore structure, network properties were examined as a function of polymer sequence by small angle neutron scattering (SANS) techniques (FIG. 9). SANS allows the examination of microstructures in the range 1-100 nm through the analysis of elastic neutron scattering. […] The calculated correlation length (Table 3) depicts a trend in the observation that are in the order SELP-415K>SELP-815K>SELP-47K. […]

The next data set concerns JHU-022 tumors. The data set can be described thus: GDEPT (HSV-tk/GCV) efficacy study, tumor size and luciferase imaging. The data set is classed as in vivo, nude mice. As to conditions: 4 wt % with virus + GCV. On the procedure:
In order to fully illustrate the potential of SELP as an injectable, in situ gel forming delivery system for the treatment of HNSCC solid tumors, a study was performed on the efficacy of this system using a GDEPT approach. The system chosen was herpes simplex virus thymidine kinase (HSV-tk) as the enzyme, and ganciclovir (GCV) as the prodrug. To accomplish this, a custom adenoviral construct was designed and used for this study. The construct contained genes which encode for HSV-tk and genes which encode for luciferase, a common reporter enzyme. This novel construct allowed both efficacy and biodistribution to be assessed simultaneously in vivo. Specifically, by combining these two genes in one virus, it becomes possible to track the location of transfection while simultaneously evaluating the efficacy of the treatment.
Appropriate controls were included. Luciferase expression was measured by injecting luciferin potassium salt intraperitoneally, and following appropriate time to allow distribution of luciferin the animals were imaged using a Xenogen IVIS100 imaging system (Caliper Life Sciences, Hopkinton, Mass.) which allows visualization of luciferase expression without sacrificing the animal. As a measure of efficacy the tumors were measured with calipers every 3 to 4 days. […]

Data set [2] in a line: One week acute toxicity study (weight, CBC). In kind it is in vivo, CD-1 immunocompetent mice. The method, then: Mice were anesthetized and maintained under anesthesia with 3% isofluorane in oxygen. After shaving and cleaning the injection site with 60% isopropanol, mice were subcutaneously injected in the right flank with 50 μl of solution using a 250 μl Hamilton syringe with a 26G needle. […] The injection site was gently clamped for 10 seconds to prevent leakage, after which mice were returned to their cages. For consistency, the day of viral injection was defined as day 0.
For treatment groups, a suspension of 1 mg GCV (Sigma Aldrich, St. Louis, Mo.) per ml of 0.9% physiological saline was prepared and sterilized through a 0.22 μm filter. Each day, animal weights were recorded, injection sites cleaned with 60% isopropanol, and mice injected i.p. with 1 mg/ml GCV suspension through a 26G needle sufficient for a total dose of 25 mg/kg body weight. Average dosing volume for these studies was approximately 0.6 ml. Mice were injected daily for the first four weeks of the 12 week recovery study, and for the entirety of the 1, 2, and 4 week studies.
Upon completion of each study, mice were individually euthanized using 70% CO2 in oxygen, with euthanasia confirmed by lack of breathing for 10 seconds. […] Injection sites were dissected for visual observation of local inflammation. Complete blood counts (CBCs) were performed within 2 hours of blood sample collection using a CBC-DIFF (Heska, Loveland, Colo.) blood count analyzer. Following CBC, samples were centrifuged at 10,000 rpm for 2.5 minutes and rapidly frozen at −80° C. for future analysis.
Safety studies were conducted in immunocompetent mice. In order to examine the ability of SELP to reduce the acute toxicity of the HSV-Tk/GCV system, 4-6 week old female CD-1 immunocompetent mice were injected subcutaneously with the conditions listed in Table 5. Weight was monitored daily for one week and daily injections of 25 mg/kg, intraperitoneal GCV were given to some groups as indicated in Table 5.
At the conclusion of the one week study, mice were sacrificed, and blood and organs were collected for analysis. […] These assessments were performed using a complete blood count.

Sequence of MMP-9 (P14780 94-707): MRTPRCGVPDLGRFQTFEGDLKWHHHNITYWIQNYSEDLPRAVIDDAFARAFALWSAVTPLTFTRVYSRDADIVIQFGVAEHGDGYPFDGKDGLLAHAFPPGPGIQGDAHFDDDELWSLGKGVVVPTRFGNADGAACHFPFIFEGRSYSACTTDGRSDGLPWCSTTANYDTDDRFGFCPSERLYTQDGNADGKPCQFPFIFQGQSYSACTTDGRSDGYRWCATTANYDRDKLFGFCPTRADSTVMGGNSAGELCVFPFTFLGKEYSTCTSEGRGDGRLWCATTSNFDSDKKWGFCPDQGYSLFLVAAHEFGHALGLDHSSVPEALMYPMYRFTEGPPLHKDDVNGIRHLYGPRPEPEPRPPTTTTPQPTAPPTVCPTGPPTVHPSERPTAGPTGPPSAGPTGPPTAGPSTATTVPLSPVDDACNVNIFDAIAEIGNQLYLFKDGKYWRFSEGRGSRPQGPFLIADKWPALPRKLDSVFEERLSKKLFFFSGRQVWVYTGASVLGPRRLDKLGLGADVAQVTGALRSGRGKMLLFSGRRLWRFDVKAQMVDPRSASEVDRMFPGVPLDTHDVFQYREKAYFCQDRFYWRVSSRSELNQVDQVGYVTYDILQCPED

B1: SELP815K: silk-elastin-like protein polymer, longer silk units, fifteen elastin units, lysine elastin unit; monomer repeated 6 times (SEQ ID NO. 21) (protein)
chain: MDPVVLQRRDWENPGVTQLNRLAAHPPFASDPMGAGSGAGAGSGAGAGSGVGVPGVGVPGVGVPGVGVPGKGVPGVGVPGVGVPGVGVPGVGVPGVGVPGVGVPGVGVPGVGVPGVGVPGVGVPGVGVPGAGAGSGAGAGSGAGAGSGAGAGSGAGAGSGAGAGAGSGAGAGSGAGAGSGVGVPGVGVPGVGVPGVGVPGKGVPGVGVPGVGVPGVGVPGVGVPGVGVPGVGVPGVGVPGVGVPGVGVPGVGVPGVGVPGAGAGSGAGAGSGAGAGSGAGAGSGAGAGSGAGAGAGSGAGAGSGAGAGSGVGVPGVGVPGVGVPGVGVPGKGVPGVGVPGVGVPGVGVPGVGVPGVGVPGVGVPGVGVPGVGVPGVGVPGVGVPGVGVPGAGAGSGAGAGSGAGAGSGAGAGSGAGAGSGAGAGAGSGAGAGSGAGAGSGVGVPGVGVPGVGVPGVGVPGKGVPGVGVPGVGVPGVGVPGVGVPGVGVPGVGVPGVGVPGVGVPGVGVPGVGVPGVGVPGAGAGSGAGAGSGAGAGSGAGAGSGAGAGSGAGAGAGSGAGAGSGAGAGSGVGVPGVGVPGVGVPGVGVPGKGVPGVGVPGVGVPGVGVPGVGVPGVGVPGVGVPGVGVPGVGVPGVGVPGVGVPGVGVPGAGAGSGAGAGSGAGAGSGAGAGSGAGAGSGAGAGAGSGAGAGSGAGAGSGVGVPGVGVPGVGVPGVGVPGKGVPGVGVPGVGVPGVGVPGVGVPGVGVPGVGVPGVGVPGVGVPGVGVPGVGVPGVGVPGAGAGSGAGAGSGAGAGSGAGAGSGAGAGSGAGAMDPGRYQDLRSHHHHHH
modifications: monomer repeated 6 times; Hybrid of Homo sapein and Bombyx mori
As for B1, in the data set with MMP-9, the “digestion by MMP-9” value is “is not”. In addition, the storage modulus entry in data set [1] is “falls between those of SELP47K and 415K”. In addition, the “tumor regrowth / recovery observation” value in the data set with JHU-022 tumors (out to day 33) was “full recovery, with no evidence of a tumor out to day 33”. Also, in the data set on JHU-022 tumors (over 33 days), the “reduction in tumor size compared to virus in saline” value turned out to be 3 fold. In data set [2], this molecule yielded a GRA of 1.125 ± 0.39, an LYM of 4.475 ± 0.87, an MON of 0.7 ± 0.27 and a WBC of 6.3 ± 0.79.
